Data published in PMC9770967, “Native holdup (nHU) to measure binding affinities from cell extracts” (Science Advances, 2022).

B1: WASH2: component of the WASH complex (protein)
chain: MTPVRMQHSLAGQTYAVPLIQPDLRREEAVQQMADALQYLQKVSGDIFSRISQQVEQSRSQVQAIGEKVSLAQAKIEKIKGSKKAIKVFSSAKYPAPERLQEYGSIFTGAQDPGLQRRPRHRIQSKHRPLDERALQEKLKDFPVCVSTKPEPEDDAEEGLGGLPSNISSVSSLLLFNTTENLYKKYVFLDPLAGAVTKTHVMLGAETEEKLFDAPLSISKREQLEQQVPENYFYVPDLGQVPEIDVPSYLPDLPGIANDLMYIADLGPGIAPSAPGTIPELPTFHTEVAEPLKVDLQDGVLTPPPPPPPPPPAPEVLASAPPLPPSTAAPVGQGARQDDSSSSASPSVQGAPREVVDPSGGRATLLESIRQAGGIGKAKLRSMKERKLEKKKQKEQEQVRATSQGGHLMSDLFNKLVMRRKGISGKGPGAGEGPGGAFARVSDSIPPLPPPQQPQAEEDEDDWES
B2: FUS (protein, UniProt P35637 1-526, looked up)
RNA-binding protein FUS: MASNDYTQQATQSYGAYPTQPGQGYSQQSSQPYGQQSYSGYSQSTDTSGYGQSSYSSYGQSQNTGYGTQSTPQGYGSTGGYGSSQSSQSSYGQQSSYPGYGQQPAPSSTSGSYGSSSQSSSYGQPQSGSYSQQPSYGGQQQSYGQQQSYNPPQGYGQQNQYNSSSGGGGGGGGGGNYGQDQSSMSSGGGSGGGYGNQDQSGGGGSGGYGQQDRGGRGRGGSGGGGGGGGGGYNRSSGGYEPRGRGGGRGGRGGMGGSDRGGFNKFGGPRDQGSRHDSEQDNSDNNTIFVQGLGENVTIESVADYFKQIGIIKTNKKTGQPMINLYTDRETGKLKGEATVSFDDPPSAKAAIDWFDGKEFSGNPIKVSFATRRADFNRGGGNGRGGRGRGGPMGRGGYGGGGSGGGGRGGFPSGGGGGGGQQRAGDWKCPNPTCENMNFSWRNECNQCKAPKPDGPGGGPGGSHMGGNYGDDRRGGRGGYDRGGYRGRGGDRGGFRGGRGGGDRGGFGPGKMDSRGEHRQDRRERPY
B3: Strumpellin: component of the WASH complex (protein, UniProt Q12768 1-1159, looked up)
WASH complex subunit 5: MLDFLAENNLCGQAILRIVSCGNAIIAELLRLSEFIPAVFRLKDRADQQKYGDIIFDFSYFKGPELWESKLDAKPELQDLDEEFRENNIEIVTRFYLAFQSVHKYIVDLNRYLDDLNEGVYIQQTLETVLLNEDGKQLLCEALYLYGVMLLVIDQKIEGEVRERMLVSYYRYSAARSSADSNMDDICKLLRSTGYSSQPGAKRPSNYPESYFQRVPINESFISMVIGRLRSDDIYNQVSAYPLPEHRSTALANQAAMLYVILYFEPSILHTHQAKMREIVDKYFPDNWVISIYMGITVNLVDAWEPYKAAKTALNNTLDLSNVREQASRYATVSERVHAQVQQFLKEGYLREEMVLDNIPKLLNCLRDCNVAIRWLMLHTADSACDPNNKRLRQIKDQILTDSRYNPRILFQLLLDTAQFEFILKEMFKQMLSEKQTKWEHYKKEGSERMTELADVFSGVKPLTRVEKNENLQAWFREISKQILSLNYDDSTAAGRKTVQLIQALEEVQEFHQLESNLQVCQFLADTRKFLHQMIRTINIKEEVLITMQIVGDLSFAWQLIDSFTSIMQESIRVNPSMVTKLRATFLKLASALDLPLLRINQANSPDLLSVSQYYSGELVSYVRKVLQIIPESMFTSLLKIIKLQTHDIIEVPTRLDKDKLRDYAQLGPRYEVAKLTHAISIFTEGILMMKTTLVGIIKVDPKQLLEDGIRKELVKRVAFALHRGLIFNPRAKPSELMPKLKELGATMDGFHRSFEYIQDYVNIYGLKIWQEEVSRIINYNVEQECNNFLRTKIQDWQSMYQSTHIPIPKFTPVDESVTFIGRLCREILRITDPKMTCHIDQLNTWYDMKTHQEVTSSRLFSEIQTTLGTFGLNGLDRLLCFMIVKELQNFLSMFQKIILRDRTVQDTLKTLMNAVSPLKSIVANSNKIYFSAIAKTQKIWTAYLEAIMKVGQMQILRQQIANELNYSCRFDSKHLAAALENLNKALLADIEAHYQDPSLPYPKEDNTLLYEITAYLEAAGIHNPLNKIYITTKRLPYFPIVNFLFLIAQLPKLQYNKNLGMVCRKPTDPVDWPPLVLGLLTLLKQFHSRYTEQFLALIGQFICSTVEQCTSQKIPEIPADVVGALLFLEDYVRYTKLPRRVAEAHVPNFIFDEFRTVL
B4: DNAJC16 (protein, UniProt Q9Y2G8 26-782, looked up)
DnaJ homolog subfamily C …: LDFDPYRVLGVSRTASQADIKKAYKKLAREWHPDKNKDPGAEDKFIQISKAYEILSNEEKRSNYDQYGDAGENQGYQKQQQQREYRFRHFHENFYFDESFFHFPFNSERRDSIDEKYLLHFSHYVNEVVPDSFKKPYLIKITSDWCFSCIHIEPVWKEVIQELEELGVGIGVVHAGYERRLAHHLGAHSTPSILGIINGKISFFHNAVVRENLRQFVESLLPGNLVEKVTNKNYVRFLSGWQQENKPHVLLFDQTPIVPLLYKLTAFAYKDYLSFGYVYVGLRGTEEMTRRYNINIYAPTLLVFKEHINRPADVIQARGMKKQIIDDFITRNKYLLAARLTSQKLFHELCPVKRSHRQRKYCVVLLTAETTKLSKPFEAFLSFALANTQDTVRFVHVYSNRQQEFADTLLPDSEAFQGKSAVSILERRNTAGRVVYKTLEDPWIGSESDKFILLGYLDQLRKDPALLSSEAVLPDLTDELAPVFLLRWFYSASDYISDCWDSIFHNNWREMMPLLSLIFSALFILFGTVIVQAFSDSNDERESSPPEKEEAQEKTGKTEPSFTKENSSKIPKKGFVEVTELTDVTYTSNLVRLRPGHMNVVLILSNSTKTSLLQKFALEVYTFTGSSCLHFSFLSLDKHREWLEYLLEFAQDAAPIPNQYDKHFMERDYTGYVLALNGHKKYFCLFKPQKTVEEEEAIGSCSDVDSSLYLGESRGKPSCGLGSRPIKGKLSKLSLWMERLLEGSLQRFYIPSWPELD

Tests used:
Assay type in all cases: binding, human
full-length SNX27 = experiment: nHU-MS, recombinant full-length SNX27 bait, total Jurkat extracts; conditions: apparent, Fig. 4D, n = 6
Protocol: The empty His6-AviTag-MBP-TEV vector was used to produce biotinylated MBP for control experiments. Proteins were coexpressed with BirA biotin ligase (PET21a-BirA, Addgene, no. 20857) in Escherichia coli BL21(DE3) cells. At isopropyl-β-D-thiogalactopyranoside (IPTG) induction (1 mM IPTG at 18°C overnight), 50 μM biotin was added to the media. Harvested cells were lysed in a buffer containing 50 mM tris (pH 7.5), 150 to 300 mM NaCl, 50 μM biotin, 2 mM β-mercaptoethanol, cOmplete EDTA-free protease inhibitor cocktail (Roche, Basel, Switzerland), 1% Triton X-100, and trace amount of deoxyribonuclease, ribonuclease, and lysozyme. Lysates were frozen at −20°C before further purification steps. Lysates were sonicated and centrifuged for clarification. Expressed proteins were captured on in-house prepacked Ni-IDA (Protino Ni-IDA Resin, Macherey-Nagel, Duren, Germany) columns and were washed with at least 10 column volumes of cold wash buffer [50 mM tris (pH 7.5), 150 mM NaCl, and 2 mM β-mercaptoethanol] before elution with 250 mM imidazole. The Ni elution was collected directly on a preequilibrated amylose column (amylose high flow resin, New England Biolabs, Ipswich, MA). Amylose column was washed with 5 column volumes of cold wash buffer before fractionated elution in a buffer containing 25 mM Hepes (pH 7.5), 150 mM NaCl, 1 mM TCEP, 10% glycerol, 5 mM maltose, and cOmplete EDTA-free protease inhibitor cocktail. The concentration of proteins was determined by their ultraviolet absorption at 280 nm before aliquots were snap-frozen in liquid nitrogen and stored at −80°C.
(§1) For saturating streptavidin resin with biotinylated peptides or biotin, 50 μl of streptavidin resin was mixed with biotin or peptide at 40 to 60 μM concentration in 6 to 6.5 resin volume for 60 min. To saturate streptavidin resin with biotinylated proteins, 50 μl of streptavidin resin (Streptavidin Sepharose High Performance, Cytiva) was mixed with biotinylated MBP or MBP-PDZ at 40 to 50 μM concentration in 20× resin volume for 60 min. After saturation, resins were washed a single time [10 resin volume, holdup buffer: 50 mM tris (pH 7.5), 300 mM NaCl, and 1 mM TCEP, 0.22-μm filtered] and were depleted with biotin (10 resin volume, 10 min, holdup buffer supplemented with 100 μM biotin). Last, resins were washed two times (10 resin volume, holdup buffer).
(§2) For single-point nHU experiments carried out at ~10 μM bait concentration, 50 μl of saturated streptavidin resin was mixed with 200 μl of cell lysate (2 mg/ml). Titration experiments were carried out by mixing control and bait-saturated resin and keeping the total resin volume constant; e.g., ~5 μM bait concentration can be achieved by mixing 25 μl of bait-saturated streptavidin resin with 25 μl of control resin and 200 μl of cell lysate (2 mg/ml). Control and bait-saturated resins were prepared in larger amounts, and a serial dilution was prepared with these presaturated resins to achieve different resin ratios.
Unless specified elswhere, the nHU mixture was incubated at 4°C for 2 hours. After the incubation ended, the resin was separated from the supernatant by a brief centrifugation (15 s, 2000 g). Then, half of the supernatant was removed by pipetting without any delay to avoid any resin contamination; e.g., 100 μl of supernatant is collected if 200 μl of cell lysate was used as analyte. Alternatively, the supernatant can be centrifuged an additional time to clarify it further, removing any possible resin contamination. […]

SCRIB_PDZ_1 = experiment: nHU-MS, SCRIB_PDZ_1 bait, total Jurkat extracts (Exploris MS); conditions: SCRIB_PDZ_1&Jurkat (Exploris)
Source text: (§3) To further establish the repeatability and robustness of the nHU-MS assay, we repeated the experiments using a different mass spectrometer and six different PDZ domain baits taken from SCRIB (PDZ_1 and PDZ_2), discs large MAGUK scaffold protein 1 (DLG1, PDZ_1, and PDZ_2), Tax1 binding protein 3 (TAX1BP3), and SNX27 (fig. S3B and table S1). […] Of the studied baits, the PDZ domain of SNX27 turned out to be the most promiscuous with 103 statistically significant interaction partners (while 180 SNX27 binding partners were identified in total on the basis of the three independent nHU-MS experiments).
as §1, §2
(§4) Unless specified elswhere, the nHU mixture was incubated at 4°C for 2 hours. After the incubation ended, the resin was separated from the supernatant by a brief centrifugation (15 s, 2000 g). Then, half of the supernatant was removed by pipetting without any delay to avoid any resin contamination; e.g., 100 μl of supernatant is collected if 200 μl of cell lysate was used as analyte. Alternatively, the supernatant can be centrifuged an additional time to clarify it further, removing any possible resin contamination. In principle, the separation of the supernatant should be as fast as possible since any delay can perturb the equilibrium. […] Alternatively, the resin can be separated from the supernatant using filter plates (e.g., various products of Millipore, Burlington, MA) or spin columns (e.g., Pierce spin cups—cellulose acetate filter from Thermo Fisher Scientific, Waltham, MA) to achieve faster separation.
The nHU samples were precipitated with trichloroacetic acid (TCA) 20% overnight at 4°C and centrifuged at 14,000 rpm for 10 min at 4°C. The protein pellets were washed twice with 1 ml of cold acetone and air-dried. The protein extracts were solubilized in 8 M urea, reduced with 5 mM TCEP for 30 min, and alkylated with 10 mM iodoacetamide for 30 min in the dark. Double digestion was performed at 37°C with 500 ng of endoproteinase Lys-C (Wako, Richmond, USA) for 4 hours, followed by fourfold dilution and an overnight digestion with 500 ng of trypsin (Promega, Charbonnieres les Bains, France). Peptide mixtures were then desalted on a C18 spin-column and dried on a speed vacuum.
(§5) Samples were analyzed using an Ultimate 3000 nano-RSLC coupled in line via a nano-electrospray ionization source, with an LTQ-Orbitrap ELITE mass spectrometer (Thermo Fisher Scientific, San Jose, CA) or with the Orbitrap Exploris 480 mass spectrometer (Thermo Fisher Scientific, Bremen, Germany) equipped with a high field asymmetric ion mobility spectrometry (FAIMS) module. […]

SCRIB_PDZ_2 = experiment: nHU-MS, SCRIB_PDZ_2 bait, total Jurkat extracts (Exploris MS); conditions: SCRIB_PDZ_2&Jurkat (Exploris)
Source text: as §3, §1, §2, §4
(§6) The nHU samples were precipitated with trichloroacetic acid (TCA) 20% overnight at 4°C and centrifuged at 14,000 rpm for 10 min at 4°C. The protein pellets were washed twice with 1 ml of cold acetone and air-dried. […]
as §5

SNX27_PDZ = experiment: nHU-MS, SNX27_PDZ bait, total Jurkat extracts, series 2 (Exploris MS); conditions: SNX27_PDZ&Jurkat (Exploris)
Source text: as §3, §1, §2, §4, §6, §5

| Molecule | pKapp (full-length SNX27) | pKapp (nHU-MS) (SCRIB_PDZ_1) | pKapp (nHU-MS) (SCRIB_PDZ_2) | pKapp (nHU-MS) (SNX27_PDZ) |
| --- | --- | --- | --- | --- |
| B1 | 5.47 | – | – | – |
| B2 | – | 4.571 | 4.538 | – |
| B3 | 4.94 | – | – | – |
| B4 | – | 4.6996 | – | 4.859 |
